Measurements reported in patent publication US20220402985A1.
Positions count from the first letter of the chain named. Numbers in names are those of the source. Where “and” joins values, the source holds several entries; their conditions need not be identical. Equal entries are not always repeated.

B1: huNRG1(S177-Q237)(3D8)::GG::huFcSEFL2 (Pb) (Fc fusion)
chain: SHLVKCGEKDKTFCVNGGECFMVEDLSIPSRFLCKCPNEFTGDRCQDFFMASFYKAEELYQGGDKTHTCPPCPAPELLGGPSVFLFPPKPKDTLMISRTPEVTCVVVDVSHEDPEVKFNWYVDGVEVHNAKTKPCEEQYGSTYRCVSVLTVLHQDWLNGKEYKCKVSNKALPAPIEKTISKAKGQPREPQVYTLPPSREEMTKNQVSLTCLVKGFYPSDIAVEWESNGQPENNYKTTPPVLDSDGSFFLYSKLTVDKSRWQQGNVFSCSVMHEALHNHYTQKSLSLSPGK
B2: huNRG1(S177-Q237)(wt)::GG::huFcSEFL2 (Pb) (Fc fusion)
chain: B1 chain with G7A, D10E, E24K, I28N, F32Y, D47N, F48Y, F49V
B3: huNRG1(S177-Q237)(_200E)::GG::huFcSEFL2 (Pb) (Fc fusion)
chain: B1 chain with G7A, D10E, I28N, F32Y, D47N, F48Y, F49V
B4: huNRG1(S177-Q237)(3F2)::GG::huFcSEFL2 (Pb) (Fc fusion)
chain: B1 chain with K9S, D10H, T12S, V23I, D25G, L26P, I28N, F32Y, F48D
B5: huNRG1(S177-Q237)(3E6)::GG::huFcSEFL2 (Pb) (Fc fusion)
chain: B1 chain with G7A, D10H, T12S, F21Y, M22V, V23I, D25G, L26S, D47K, F48D
B6: huNRG1(S177-Q237)(3H5)::GG::huFcSEFL2 (Pb) (Fc fusion)
chain: B1 chain with K9R, D10H, T12S, F21Y, M22V, D25R, L26P, D47K, F48D, M50L
B7: huNRG1(S177-Q237)(_FVIEDPSI)::GG::huFcSEFL2 (Pb) (Fc fusion)
chain: B1 chain with G7A, D10E, M22V, V23I, L26P, F32Y, D47N, F48Y, F49V
B8: huNRG1(S177-Q237)(3H8)::GG::huFcSEFL2 (Pb) (Fc fusion)
chain: B1 chain with D10H, T12S, F21Y, D25G, L26S, F32Y, D47E, F48D
B9: huNRG1(S177-Q237)()200E_KDF)::GG::huFcSEFL2 (Pb) (Fc fusion)
chain: B1 chain with G7A, D10E, I28N, F32Y, D47K, F48D
B10: huNRG1(S177-Q237)(3G3)::GG::huFcSEFL2 (Pb) (Fc fusion)
chain: B1 chain with K9R, D10E, V23I, D25H, D47E, F48D
B11: huNRG1(S177-Q237)(3G9)::GG::huFcSEFL2 (Pb) (Fc fusion)
chain: B1 chain with K9S, D10H, T12S, I28N, D47K, F48D
B12: huNRG1(S177-Q237)(3E9)::GG::huFcSEFL2 (Pb) (Fc fusion)
chain: SHLVKCAENHKTFCVNGGECFVIEGSSNPSRYLCKCPNEFTGDRCQDVFLASFYKAEELYQGGDKTHTCPPCPAPELLGGPSVFLFPPKPKDTLMISRTPEVTCVVVDVSHEDPEVKFNWYVDGVEVHNAKTKPCEEQYGSTYRCVSVLTVLHQDWLNGKEYKCKVSNKALPAPIEKTISKAKGQPREPQVYTLPPSREEMTKNQVSLTCLVKGFYPSDIAVEWESNGQPENNYKTTPPVLDSDGSFFLYSKLTVDKSRWQQGNVFSCSVMHEALHNHYTQKSLSLSPGK
B13: huNRG1(S177-Q237)(v80.3)::GG::huFcSEFL2 (Pb) (Fc fusion)
chain: B12 chain with N9R, T12S, N28I, Q46E, D47K, V48D, F49V, L50M
B14: huNRG1(S177-Q237)(v80)::GG::huFcSEFL2 (Pb) (Fc fusion)
chain: B12 chain with N9S, T12S, N28I, D47K, V48D, F49V, L50M
B15: huNRG1(S177-F229)(NRGE1C)::1KmodT482V, M493L)::huFcSEFL2 (Pb) (Fc fusion)
chain: SHLVKCGEKHKSFCVNGGECFMIEGPSNPSRYLCKCPNEFTGDRCQEDFMASFGSGSATGGSGSVASSGSGSATHLDKTHTCPPCPAPELLGGPSVFLFPPKPKDTLMISRTPEVTCVVVDVSHEDPEVKFNWYVDGVEVHNAKTKPCEEQYGSTYRCVSVLTVLHQDWLNGKEYKCKVSNKALPAPIEKTISKAKGQPREPQVYTLPPSREEMTKNQVSLTCLVKGFYPSDIAVEWESNGQPENNYKTTPPVLDSDGSFFLYSKLTVDKSRWQQGNVFSCSVMHEALHNHYTQKSLSLSPGK

How the values were obtained:
[1] = molecular target: ErbB4 on neonatal rat cardiomyocytes (rat) (UniProt Q62956); assay: cell-based or functional assay
Sequence of ErbB4 on neonatal rat cardiomyocytes (rat) (Q62956 26-1308): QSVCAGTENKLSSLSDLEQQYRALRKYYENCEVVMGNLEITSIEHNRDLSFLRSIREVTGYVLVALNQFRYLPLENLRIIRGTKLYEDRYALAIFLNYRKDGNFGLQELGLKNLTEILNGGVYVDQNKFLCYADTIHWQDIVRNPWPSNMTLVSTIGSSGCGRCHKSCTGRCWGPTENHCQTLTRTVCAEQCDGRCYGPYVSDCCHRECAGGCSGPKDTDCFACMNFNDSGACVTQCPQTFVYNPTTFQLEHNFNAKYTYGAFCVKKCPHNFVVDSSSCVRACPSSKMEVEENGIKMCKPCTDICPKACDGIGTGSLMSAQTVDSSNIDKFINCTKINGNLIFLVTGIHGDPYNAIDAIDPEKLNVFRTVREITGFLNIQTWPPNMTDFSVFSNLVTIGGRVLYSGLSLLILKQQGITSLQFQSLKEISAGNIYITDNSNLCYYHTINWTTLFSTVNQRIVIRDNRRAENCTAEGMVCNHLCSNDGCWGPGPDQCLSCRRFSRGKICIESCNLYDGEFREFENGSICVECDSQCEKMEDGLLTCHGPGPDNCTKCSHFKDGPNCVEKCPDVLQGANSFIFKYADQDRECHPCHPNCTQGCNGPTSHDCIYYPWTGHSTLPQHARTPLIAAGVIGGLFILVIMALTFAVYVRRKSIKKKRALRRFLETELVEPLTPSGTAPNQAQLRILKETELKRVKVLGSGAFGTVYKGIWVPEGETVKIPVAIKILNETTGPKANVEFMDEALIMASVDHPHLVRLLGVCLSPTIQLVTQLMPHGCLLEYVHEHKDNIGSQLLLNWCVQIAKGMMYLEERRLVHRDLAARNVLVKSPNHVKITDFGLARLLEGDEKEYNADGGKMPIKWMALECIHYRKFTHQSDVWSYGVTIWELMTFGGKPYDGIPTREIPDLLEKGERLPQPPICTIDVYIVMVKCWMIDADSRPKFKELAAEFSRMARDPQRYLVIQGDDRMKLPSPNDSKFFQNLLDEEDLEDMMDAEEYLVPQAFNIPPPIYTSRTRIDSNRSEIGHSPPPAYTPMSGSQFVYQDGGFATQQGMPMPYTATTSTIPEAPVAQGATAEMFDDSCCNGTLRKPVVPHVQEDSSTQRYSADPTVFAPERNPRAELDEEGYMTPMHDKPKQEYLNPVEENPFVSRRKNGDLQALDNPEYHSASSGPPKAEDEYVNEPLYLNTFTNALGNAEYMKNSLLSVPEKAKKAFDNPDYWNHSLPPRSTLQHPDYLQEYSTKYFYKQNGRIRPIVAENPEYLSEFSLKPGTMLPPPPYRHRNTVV

[2] = molecular target: ErbB3 on rat Schwann cells (rat) (UniProt Q62799); assay: cell-based or functional assay
Sequence of ErbB3 on rat Schwann cells (rat) (Q62799 20-1339): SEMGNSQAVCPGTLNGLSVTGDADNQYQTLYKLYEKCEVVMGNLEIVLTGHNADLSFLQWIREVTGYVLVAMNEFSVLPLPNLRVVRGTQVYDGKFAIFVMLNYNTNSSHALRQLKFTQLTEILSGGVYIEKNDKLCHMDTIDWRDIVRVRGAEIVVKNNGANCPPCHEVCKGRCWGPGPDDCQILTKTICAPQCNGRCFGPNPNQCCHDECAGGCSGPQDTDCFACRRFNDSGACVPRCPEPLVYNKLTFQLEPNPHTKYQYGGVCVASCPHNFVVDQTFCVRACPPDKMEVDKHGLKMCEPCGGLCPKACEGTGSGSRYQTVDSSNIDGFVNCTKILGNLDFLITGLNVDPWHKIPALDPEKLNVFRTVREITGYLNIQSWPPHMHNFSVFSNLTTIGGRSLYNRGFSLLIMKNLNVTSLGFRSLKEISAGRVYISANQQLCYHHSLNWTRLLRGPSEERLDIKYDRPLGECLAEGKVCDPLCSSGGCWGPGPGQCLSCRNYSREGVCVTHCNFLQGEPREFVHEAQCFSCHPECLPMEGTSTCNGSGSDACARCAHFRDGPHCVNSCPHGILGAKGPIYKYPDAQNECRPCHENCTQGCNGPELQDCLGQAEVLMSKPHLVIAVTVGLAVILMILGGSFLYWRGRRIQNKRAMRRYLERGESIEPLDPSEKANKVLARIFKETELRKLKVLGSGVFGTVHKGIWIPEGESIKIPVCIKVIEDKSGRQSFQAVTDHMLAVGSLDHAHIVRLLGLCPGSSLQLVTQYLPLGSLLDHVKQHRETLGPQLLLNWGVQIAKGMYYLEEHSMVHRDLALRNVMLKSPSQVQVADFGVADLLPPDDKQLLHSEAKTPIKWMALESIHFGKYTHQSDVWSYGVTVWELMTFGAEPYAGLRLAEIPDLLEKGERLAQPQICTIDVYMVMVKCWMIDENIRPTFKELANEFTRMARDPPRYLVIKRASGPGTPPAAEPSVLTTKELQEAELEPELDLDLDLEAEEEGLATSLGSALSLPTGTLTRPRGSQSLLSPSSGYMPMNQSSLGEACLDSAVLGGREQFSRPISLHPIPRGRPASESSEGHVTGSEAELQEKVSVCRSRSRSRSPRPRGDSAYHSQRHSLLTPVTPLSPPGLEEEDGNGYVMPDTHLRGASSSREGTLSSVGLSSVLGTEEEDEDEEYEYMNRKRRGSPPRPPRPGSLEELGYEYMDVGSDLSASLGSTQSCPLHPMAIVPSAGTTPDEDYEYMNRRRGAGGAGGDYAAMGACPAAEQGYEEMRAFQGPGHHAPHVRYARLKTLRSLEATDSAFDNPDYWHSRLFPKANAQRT

| Binder | CM % Agonism AVG [1] [%] | Cardiomyocyte (CM) (ErbB4) Avg EC50 [1] | Selectivity SC/CM [1] | Schwann cells (SC) (ErbB3) Avg EC50 [2] |
| --- | --- | --- | --- | --- |
| B1 | < 50 | 0.51 nM | > 5800 | > 3000 nM |
| B2 | – | 0.275 nM and 0.6 nM | 0.4 and 0.3 | 0.112 nM and 0.15 nM |
| B3 | – | 0.452 nM | 11 | 4.82 nM |
| B4 | 70 | 0.738 nM | > 10000 | > 10000 nM |
| B5 | – | 0.35 nM | > 10000 | > 10000 nM |
| B6 | – | 1.27 nM | > 7800 | > 10000 nM |
| B7 | – | 0.177 nM | 24 | 4.27 nM |
| B8 | – | 0.276 nM | > 10000 | > 10000 nM |
| B9 | – | 2 nM | 60 | 121 nM |
| B10 | 70 | 1.84 nM | > 5400 | > 10000 nM |
| B11 | – | 0.581 nM | > 10000 | > 10000 nM |
| B12 | 70 | 2.68 nM | > 8500 | > 3000 nM |
| B13 | – | 33.6 nM | 89 | 3000 nM |
| B14 | – | 0.998 nM | 7 | 6.65 nM |
| B15 | 75.8 | 0.4 nM | > 10000 | > 10000 nM |
